Experimental data as given in paper doi:10.1101/2022.09.21.508879.

Tests used:
[1] = biological target: Trypanosoma brucei CFAP410 C-terminal domain, wild type (Trypanosoma brucei); assay: crystal structure
[2] = biological target: Homo sapiens CFAP410 C-terminal domain, wild type (Homo sapiens) (UniProt O43822); assay: crystal structure
[3] = biological target: Chlamydomonas reinhardtii CFAP410 C-terminal domain, wild type (Chlamydomonas reinhardtii); assay: crystal structure
[4] = biological target: Chlamydomonas reinhardtii CFAP410 C-terminal domain, wild type (Chlamydomonas reinhardtii); assay: SEC-MALS
[5] = biological target: Chlamydomonas reinhardtii CFAP410 C-terminal domain, mutant A219E (Chlamydomonas reinhardtii); assay: SEC-MALS

In the case of “Trypanosoma brucei CFAP410 C-terminal domain, wild type (peptide)”, the stoichiometry N [1] is reported as 4.
For “Homo sapiens CFAP410 C-terminal domain, wild type (from UniProt O43822 212-246) (peptide)”, the stoichiometry N [2] was 4.
“Chlamydomonas reinhardtii CFAP410 C-terminal domain, wild type (peptide)” gave a stoichiometry N [3] of 4 and a stoichiometry N [4] of 4.
Substance “Chlamydomonas reinhardtii CFAP410 C-terminal domain, mutant A219E (peptide)” has a stoichiometry N [5] of 2.
